PMC6650482, “Tyrosine 51 residue of the syndecan-2 extracellular domain is involved in the interaction with and activation of pro-matrix metalloproteinase-7” (Scientific Reports, 2019)
Changes are numbered by the printed parent chain. Names may count otherwise. “Also recorded” adds a separate entry of the source. Blank lines part the entries; values can stand above or below the molecule they belong to.

What was measured:
[1] = Circular dichroism secondary structure; assay type: physicochemical
Description: Figure 2 The pro-domain of MMP-7 is involved in its interaction with the syndecan-2 extracellular domain. (A) Schematic representations of the pro-domain of MMP-7 (PD) and the deletion mutants lacking the pro-domain, N-terminus (ΔN), C-terminus (ΔC) and both N- and C-terminus (ΔNC) (top). His-tagged MMP-7 pro-domain was purified with Ni-NTA agarose beads, separated by SDS-PAGE and stained with Coomassie Blue (bottom). (B) Purified GST-S2E, S2E-C and S2E-NII were incubated with His-tagged PD, or ΔN, ΔC or ΔNC MMP-7 pro-domain. Materials bound to glutathione-agarose beads were immunoblotted with an anti-His tag antibody (top). The membranes were then stripped and re-probed with an anti-GST antibody (bottom). […] Absorbance was measured at 450 nm. […]
Figure 4 The α2–3 helix of the MMP-7 pro-domain is involved in its interaction with the syndecan-2 extracellular domain. […] (C) The secondary structure of the α2–3 helix of the MMP-7 pro-domain was analyzed using CD in the presence of different concentrations of TFE (top). Quantitative estimations of the secondary-structure content were made with the CDPro software package, which includes the programs CDSSTR, CONTIN, and SELCON3. […] Smaller values of NRMSD indicate closer correspondence between calculated structures and the experimental data. […]

[2] = tested on: GST-SDC-2; experiment: In vitro binding of MMP-7 pro-domain fragments to GST-SDC2; parameters: species or system human; details: GST-SDC-2, glutathione-agarose beads, anti-His immunoblot
Description: (§1) Figure 4 The α2–3 helix of the MMP-7 pro-domain is involved in its interaction with the syndecan-2 extracellular domain. (A) Structure of the MMP-7 pro-domain (PDB; 2MZE) and schematic diagram of the MMP-7 pro-domain (PD) and its deletion mutants. The indicated MMP-7 pro-domain mutants were purified with Ni-NTA agarose beads, separated by SDS-PAGE. Purified MMP-7 pro-domain mutants were incubated with GST-SDC-2. Materials bound to glutathione-agarose beads were immunoblotted with an anti-His tag antibody and the membranes were stripped and re-probed with an anti-GST antibody. Image is of a single membrane cropped to remove intervening lanes. (B) Purified GST-SDC2 mutants were incubated with His-tagged α2–3 helix of the MMP-7 pro-domain. Materials bound to glutathione-agarose beads were immunoblotted with an anti-His tag antibody (top) and the membranes were then stripped and re-probed with an anti-GST antibody (bottom). (C) The secondary structure of the α2–3 helix of the MMP-7 pro-domain was analyzed using CD in the presence of different concentrations of TFE (top). Quantitative estimations of the secondary-structure content were made with the CDPro software package, which includes the programs CDSSTR, CONTIN, and SELCON3. […] Smaller values of NRMSD indicate closer correspondence between calculated structures and the experimental data.

[3] = tested on: N-terminus of the extracellular domain of syndecan-2; experiment: In vitro binding of MMP-7 α2–3 helix with N-terminus of the syndecan-2 extracellular domain; parameters: species or system human; details: His-tagged α2–3, GST-SDC2 mutants, anti-His immunoblot
Description: as §1

[4] = biological target: T1, His-tagged pro-domain of MMP-7 (His-PD) (Homo sapiens, UniProt P09237); experiment: In vitro binding (GST pulldown / anti-His immunoblot) with His-PD; details: GST-tagged proteins
T1 construct: His tag; pET32a(+) vector-encoded fusion part (thioredoxin/S-tag by own knowledge of the vector); made in house
T1 sequence (P09237 18-94 limits assumed): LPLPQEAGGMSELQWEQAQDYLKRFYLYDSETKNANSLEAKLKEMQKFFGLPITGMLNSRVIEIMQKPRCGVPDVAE
Text: Figure 1 The N-terminus of syndecan-2 interacts with the pro-domain of MMP-7. (A) Schematic representation of the syndecan-2 core protein (SDC2) and MMP-7. The signal peptide (SP), the extracellular domain (EC), the transmembrane domain (TM), and the cytoplasmic domain (CT) of syndecan-2 are noted, and the various deletion mutants are indicated. A peptide corresponding to residues 41–60 of the syndecan-2 extracellular domain (S2-P) was synthesized. Syndecan-2 is labeled with amino acid numbers to show the location of each deletion (left). Schematic representation of MMP-7. The pre-domain (Pre), pro-domain (PD), and catalytic domain are shown (right top). Purified GST-SDC2 mutants and the His-tagged pro-domain of MMP-7 were separated by 15% SDS-PAGE and stained with Coomassie Blue (right bottom). (B) Purified GST or GST-SDC2 mutants were incubated with His-tagged pro-domain of MMP-7 (His-PD). Bound materials were subjected to immunoblotting with an anti-His tag antibody (top). The membranes were then stripped and re-probed with an anti-GST antibody (bottom). (C) Purified GST-SDC2 was incubated with purified His-PD MMP-7 plus the indicated amounts of S2-P for 2 h at 4 °C. Bound materials were subjected to immunoblotting with an anti-His tag antibody (top). […] (D) Fluorescence spectroscopy indicates the binding affinity between His-PD and S2-P peptide. […]

[5] = tested on: His-tagged ΔNC MMP-7 pro-domain; experiment: In vitro binding of GST-SDC2 mutants to His-ΔNC; parameters: species or system human; details: 2 h at 4 °C, immunoblot
Description: Figure 2 The pro-domain of MMP-7 is involved in its interaction with the syndecan-2 extracellular domain. (A) Schematic representations of the pro-domain of MMP-7 (PD) and the deletion mutants lacking the pro-domain, N-terminus (ΔN), C-terminus (ΔC) and both N- and C-terminus (ΔNC) (top). His-tagged MMP-7 pro-domain was purified with Ni-NTA agarose beads, separated by SDS-PAGE and stained with Coomassie Blue (bottom). (B) Purified GST-S2E, S2E-C and S2E-NII were incubated with His-tagged PD, or ΔN, ΔC or ΔNC MMP-7 pro-domain. Materials bound to glutathione-agarose beads were immunoblotted with an anti-His tag antibody (top). The membranes were then stripped and re-probed with an anti-GST antibody (bottom). (C) ELISA plates coated with 600 ng of S2-P were incubated with the indicated His-tagged MMP-7 pro-domains (500 ng/well) for 2 h at 20 °C. The plates were washed, incubated with an anti-His tag antibody followed by IgG-HRP, and developed with TMB-ELISA. Absorbance was measured at 450 nm. Data are shown as mean ± S.D. (n = 3), *p < 0.05 versus blank. (D) Purified GST-SDC2 was mixed with His-tagged ΔNC for 2 h at 4 °C., separated by SDS-PAGE, and immunoblotted with anti-His or -GST antibodies. (E) The secondary structures of the MMP-7 pro-domain mutants of ΔN, ΔC and ΔNC were diluted to 50 μM in a buffer consisting of 10 mM HEPES and 20 mM NaCl, pH 8, and kept at 20 °C. […]

[6] = tested on: His-tagged α2–3 helix of the MMP-7 pro-domain; experiment: In vitro binding of GST-SDC2 proteins to His-tagged α2–3; parameters: species or system human; details: 2 h at 4 °C, glutathione-agarose beads, immunoblot
Description: as §1, with “data. […]” for “data.”

[7] = biological target: His-tagged pro-domain of MMP-7 (His-PD) (human, UniProt P09237 18-267, Limits are the UniProt activation peptide. Paper's NMR numbering + 24 = precursor numbering (Gln7=Q31, Glu32=E56, Gly48=G72, Ser52=S76). Deletion-construct numbering implies a PD of about 79 residues,); experiment: other fluorescence titration; tryptophan quenching; 15 uM His-PD, S2-P titrated up to 1:200 molar ratio; PBS pH 7.4, 298 K; excitation 280 nm, intensity at 347 nm; details: both partners purified
Sequence of His-tagged pro-domain of MMP-7 (His-PD) (human, UniProt P09237 18-267, Limits are the UniProt activation peptide. Paper's NMR numbering + 24 = precursor numbering (Gln7=Q31, Glu32=E56, Gly48=G72, Ser52=S76). Deletion-construct numbering implies a PD of about 79 residues,) (P09237 18-267): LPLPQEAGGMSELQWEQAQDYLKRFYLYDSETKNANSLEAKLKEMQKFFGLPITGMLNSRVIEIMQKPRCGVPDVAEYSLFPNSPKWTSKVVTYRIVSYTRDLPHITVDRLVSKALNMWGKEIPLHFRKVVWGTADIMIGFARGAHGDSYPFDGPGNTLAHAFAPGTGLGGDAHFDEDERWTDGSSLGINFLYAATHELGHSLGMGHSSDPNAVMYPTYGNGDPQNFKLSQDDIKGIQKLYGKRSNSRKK

Molecule: α2–3: α2 helix-loop-α3 helix protein fragment of the MMP-7 pro-domain
helicity ([1]; CD, α-helical fraction from CDPro, without TFE): 75% | secondary structure by CD (qualitative) ([1]; far-UV CD, pro-domain mutants at 50 μM, 10 mM HEPES, 20 mM NaCl, pH 8, 20 °C (Fig. 2E), α2–3 in Fig. 4C): had a helical structure, as suggested by the presence of minima (negative peaks) at 208 and 222 nm | interaction with syndecan-2 (pulldown, qualitative) [2]: interacted with syndecan-2, although to a slightly weaker degree than ΔNC; also recorded: interacted with recombinant syndecan-2 in vitro | interaction with the N-terminus of the extracellular domain of syndecan-2 (pulldown, qualitative) [3]: interacted with the N-terminus of the extracellular domain of syndecan-2

interaction with His-PD (pulldown, qualitative) [4]: interacted with the pro-domain of MMP-7
B1: S2E: GST-tagged syndecan-2 extracellular domain (protein)
chain: ESRAELTSDKDMYLDNSSIEEASGVYPIDDDDYASASGSGADEDVESPELTTSRPLPKILLTSAAPKVETTTLNIQNKIPAQTKSPEETDKEKVHLSDSERKMDPAEEDTNVYTEKHSDSLFKRTE
modifications: left off: GST, end not stated, kept
notes: GST-tagged syndecan-2 extracellular domain

interaction with His-tagged ΔNC (pulldown, qualitative) [5]: significantly reduced the interaction | interaction with α2–3 (pulldown, qualitative) [6]: failed to interact with the α2–3
B2: Y51A: substitution of Tyr51 with Ala in the syndecan-2 extracellular domain (protein)
chain: B1 chain with Y33A
modifications: left off: GST, end not stated, kept
notes: substitution of Tyr51 with Ala in the syndecan-2 extracellular domain

interaction with His-tagged ΔNC (pulldown, qualitative) [5]: did not affect its interaction
B3: D49A: substitution of Asp49 with Ala in the syndecan-2 extracellular domain (protein)
chain: B1 chain with D31A
modifications: left off: GST, end not stated, kept
notes: substitution of Asp49 with Ala in the syndecan-2 extracellular domain

interaction with α2–3 (pulldown, qualitative) [6]: interacted with the α2–3
B4: recombinant syndecan-2: Purified GST-SDC2 (protein, UniProt P34741 19-201, looked up)
Syndecan-2: ESRAELTSDKDMYLDNSSIEEASGVYPIDDDDYASASGSGADEDVESPELTTSRPLPKILLTSAAPKVETTTLNIQNKIPAQTKSPEETDKEKVHLSDSERKMDPAEEDTNVYTEKHSDSLFKRTEVLAAVIAGGVIGFLFAIFLILLLVYRMRKKDEGSYDLGERKPSSAAYQKAPTKEFYA
modifications: GST tag
notes: Purified GST-SDC2

Kd [7]: 1.586 ± 0.012 mM
B5: synthetic human syndecan-2 peptide (S2-P), extracellular domain residues 41-60 (peptide)
peptide: SGVYPIDDDDYASASGSGAD
notes: human syndecan-2 extracellular domain residues 41-60; also called S2-P peptide; source: synthetic peptide (Fmoc solid-phase, Anygen Inc.)
